# Target: Bio-His-FIKK13 (P. falciparum)
# Assay: SPR
binder,measurement,value
YPLRFLSKYHCG [FIKK13_4],Kd,17 nM
